B1: Azoarcus group I ribozyme (parent)
chain: GUGCCUUGCGCCGGGAAACCACGCAAGGGAUGGUGUCAAAUUCGGCGAAACCUAAGCGCCCGCCCGGGCGUAUGGCAACGCCGAGCCAAGCUUCGGCGCCUGCGCCGAUGAAGGUGUAGAGACUAGACGGCACCCACCUAAGGCAAACGCUAUGGUGAAGGCAUAGUCCAGGGAGUGGCGAAAGUCACACAAACCGG

Variants of: B1
Experiment: reverse-splicing fitness (ratio to wild type); higher = more active; in vitro selection; Mg2+ level not given
Summary of the method: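 An in vitro group I ribozyme library with randomized positions was T7-transcribed and gel-purified. In triplicate, 10 pmol RNA in EPPS pH 7.5 was reacted with 50 pmoles of a 30-nt RNA substrate for 1 h at 37 °C across several added MgCl2 levels (1–48 mM), then stopped with EDTA. Products were reverse transcribed from a substrate-complementary primer, PCR-amplified and sequenced (HiSeq 4000). Fitness is a variant's read proportion after selection over that before, normalised to wild type.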

Variant | reverse-splicing fitness
A111G A120C | 0.806
A111G A120C A145C C150U C169A U176A | 0.00824
A111C C150A U176C | 0.147
A111C C150A U176A | 0.12
A111C C150A U176G | 0.0531
A111C C150A | 0.303
A111C C150U | 0.709
A111C C150G | 0.185
A111C A145U C150U U176C | 0.36
A111C A145U C150U U176A | 0.365
A111C A145U C150U U176G | 0.166
A111C U176G | 0.202
A111C U176A | 0.368
A111C U176C | 0.38
A111C A145G C150U C169G | 0.0511
A111C A145G C150U C169U | 0.0877
A111C A145G C150U C169A | 0.0243
A111C A120U C150G C169U U176A | 0.00446
A111C A120U C150G C169U U176C | 0.00564
A111C A120U C150G C169U U176G | 0.00276
A111C A145U C150A C169A U176G | 0.00755
A111C A145U C150A C169A U176A | 0.0138
A111C A145U C150A C169A U176C | 0.0151
A111C C150U C169U U176C | 0.0245

Variant | reverse-splicing fitness
A111C C150U C169U U176A | 0.0241
A111C C150U C169U U176G | 0.00793
A111C A145G U176C | 0.401
A111C A145G U176A | 0.432
A111C A145G U176G | 0.185
A111C A145U C150A C169U U176A | 0.0176
A111C A145U C150A C169U U176G | 0.00751
A111C A145U C150A C169U U176C | 0.0154
A111C C169U U176A | 0.0264
A111C C169U U176G | 0.00757
A111C C169U U176C | 0.0304
A111C C150G U176G | 0.0131
A111C C150G U176C | 0.0763
A111C C150G U176A | 0.0504
A111C A145C C150G C169A U176G | 0.00574
A111C A145C C150G C169A U176A | 0.00774
A111C A145C C150G C169A U176C | 0.00833
A111C A145G C169U | 0.126
A111C A145G C169G | 0.0737
A111C A145G C169A | 0.0355
A111G A120C A145C C150G C169A U176C | 0.00524
A111G A120C A145C C150G C169A U176G | 0.00452
A111G A120C A145C C150G C169A U176A | 0.00532
A111C A145G C150A C169A U176G | 0.00852

Variant | reverse-splicing fitness
A111C A145G C150A C169A U176A | 0.0169
A111C A145G C150A C169A U176C | 0.0182
A111G A120C A145C C150A C169A U176A | 0.00728
A111G A120C A145C C150A C169A U176G | 0.00443
A111G A120C A145C C150A C169A U176C | 0.0045
A111C C150G C169U U176A | 0.00732
A111C C150G C169U U176C | 0.014
A111C C150G C169U U176G | 0.00651
A111C C150G C169A U176C | 0.0107
A111C C150G C169A U176G | 0.00532
A111C C150G C169A U176A | 0.00958
A111C A145C C169G U176C | 0.0318
A111C A145C C169G U176G | 0.00691
A111C A145C C169G U176A | 0.0324
A111C A145U U176A | 0.424
A111C A145U U176C | 0.398
A111C A145U U176G | 0.276
A111C A145G C150G C169A U176A | 0.0119
A111C A145G C150G C169A U176G | 0.00766
A111C A145G C150G C169A U176C | 0.011
A111C A145C C150U C169U | 0.032
A111C A145C C150U C169A | 0.0114
A111C A145C C150U C169G | 0.0204
A111G A120C A145C C150A C169G U176G | 0.00452

Variant | reverse-splicing fitness
A111G A120C A145C C150A C169G U176C | 0.00982
A111G A120C A145C C150A C169G U176A | 0.0185
A111C A145C C150A C169U U176A | 0.0151
A111C A145C C150A C169U U176C | 0.0102
A111C A145C C150A C169U U176G | 0.00658
A111C A145G C150A U176C | 0.168
A111C A145G C150A U176G | 0.058
A111C A145G C150A U176A | 0.146
A111C A145C C150G | 0.246
A111C A145C C150A | 0.15
A111C A145C C150U | 0.554
A111C A145G C169G U176G | 0.00716
A111C A145G C169G U176C | 0.0392
A111C A145G C169G U176A | 0.0283
A111C A120U C169A U176G | 0.00232
A111C A120U C169A U176C | 0.00293
A111C A120U C169A U176A | 0.00319
A111C A145U C150G U176G | 0.022
A111C A145U C150G U176A | 0.0925
A111C A145U C150G U176C | 0.119
A111C A145G C150U C169U U176G | 0.00751
A111C A145G C150U C169U U176A | 0.0237
A111C A145G C150U C169U U176C | 0.0254
A111C C169G U176G | 0.00725

Variant | reverse-splicing fitness
A111C C169G U176C | 0.0355
A111C C169G U176A | 0.0217
A111C A145U C150G C169G U176C | 0.00594
A111C A145U C150G C169G U176G | 0.0067
A111C A145U C150G C169G U176A | 0.00777
A111C A145C C150U C169A U176C | 0.00847
A111C A145C C150U C169A U176A | 0.0139
A111C A145C C150U C169A U176G | 0.00708
A111C A145C C150U U176A | 0.219
A111C A145C C150U U176C | 0.349
A111C A145C C150U U176G | 0.11
A111C A120U C150U C169A U176C | 0.00309
A111C A120U C150U C169A U176G | 0.00204
A111C A120U C150U C169A U176A | 0.00394
A111G A120C A145C C150G | 0.136
A111G A120C A145C C150A | 0.0611
A111G A120C A145C C150U | 0.298
A111C A145U C150U C169U U176G | 0.00764
A111C A145U C150U C169U U176C | 0.0241
A111C A145U C150U C169U U176A | 0.0264
A111C A145G C150A C169U | 0.0232
A111C A145G C150A C169G | 0.0154
A111C A145G C150A C169A | 0.0128
A111G A120C A145C C150A C169U U176A | 0.016

Variant | reverse-splicing fitness
A111G A120C A145C C150A C169U U176C | 0.012
A111G A120C A145C C150A C169U U176G | 0.00433
A111C A145C C150U C169G U176G | 0.00689
A111C A145C C150U C169G U176A | 0.0249
A111C A145C C150U C169G U176C | 0.0197
A111C C150G C169U | 0.0134
A111C C150G C169G | 0.00897
A111C C150G C169A | 0.00834
A111C A145G C150A C169U U176A | 0.0185
A111C A145G C150A C169U U176G | 0.00843
A111C A145G C150A C169U U176C | 0.019
A111C C169A U176A | 0.0188
A111C C169A U176C | 0.0285
A111C C169A U176G | 0.00548
A111C A145U C169G U176C | 0.0264
A111C A145U C169G U176A | 0.0179
A111C A145U C169G U176G | 0.00719
A111C A145G C150U C169A U176C | 0.0152
A111C A145G C150U C169A U176A | 0.0141
A111C A145G C150U C169A U176G | 0.00725
A111C A145U C169U | 0.116
A111C A145U C169G | 0.071
A111C A145U C169A | 0.0348
A111C C150U C169A U176C | 0.0136

Variant | reverse-splicing fitness
A111C C150U C169A U176G | 0.00796
A111C C150U C169A U176A | 0.0164
A111C A145U C150A C169A | 0.0106
A111C A145U C150A C169G | 0.0113
A111C A145U C150A C169U | 0.0179
A111G | 1.01
A111C A120U C169U U176G | 0.00263
A111C A120U C169U U176A | 0.0143
A111C A120U C169U U176C | 0.0214
A111C A145G C150G C169U U176A | 0.0107
A111C A145G C150G C169U U176G | 0.00713
A111C A145G C150G C169U U176C | 0.0142
A111C A145C U176A | 0.402
A111C A145C U176G | 0.217
A111C A145C U176C | 0.372
A111C A120U U176C | 0.257
A111C A120U U176A | 0.22
A111C A120U U176G | 0.0937
A111C A145U | 0.839
A111C A145C | 0.768
A111C A145G | 0.83
A111C A145G C169A U176G | 0.0065
A111C A145G C169A U176C | 0.0307
